Data published in PMC10281268.

Molecular target: GFP-tagged Y822F vinculin (chicken), expressed in 4T1 vinculin-knockout cells (chicken) (UniProt P12003)
Test: co-IP; GFP or GFP-tagged vinculins immunoprecipitated with GFP antibody and protein A/G agarose from lysates of 4T1 vinculin-knockout cells (EB or RIPA buffer), reducing SDS-PAGE, immunoblot for talin, paxillin or β-actin; in one panel cells pre-treated with 10 mM NAC for 1 h (paxillin with Y822C reduced, not significantly changed with wild type and Y822F)

Sequence of UniProt P12003 (P12003 whole entry Y822F): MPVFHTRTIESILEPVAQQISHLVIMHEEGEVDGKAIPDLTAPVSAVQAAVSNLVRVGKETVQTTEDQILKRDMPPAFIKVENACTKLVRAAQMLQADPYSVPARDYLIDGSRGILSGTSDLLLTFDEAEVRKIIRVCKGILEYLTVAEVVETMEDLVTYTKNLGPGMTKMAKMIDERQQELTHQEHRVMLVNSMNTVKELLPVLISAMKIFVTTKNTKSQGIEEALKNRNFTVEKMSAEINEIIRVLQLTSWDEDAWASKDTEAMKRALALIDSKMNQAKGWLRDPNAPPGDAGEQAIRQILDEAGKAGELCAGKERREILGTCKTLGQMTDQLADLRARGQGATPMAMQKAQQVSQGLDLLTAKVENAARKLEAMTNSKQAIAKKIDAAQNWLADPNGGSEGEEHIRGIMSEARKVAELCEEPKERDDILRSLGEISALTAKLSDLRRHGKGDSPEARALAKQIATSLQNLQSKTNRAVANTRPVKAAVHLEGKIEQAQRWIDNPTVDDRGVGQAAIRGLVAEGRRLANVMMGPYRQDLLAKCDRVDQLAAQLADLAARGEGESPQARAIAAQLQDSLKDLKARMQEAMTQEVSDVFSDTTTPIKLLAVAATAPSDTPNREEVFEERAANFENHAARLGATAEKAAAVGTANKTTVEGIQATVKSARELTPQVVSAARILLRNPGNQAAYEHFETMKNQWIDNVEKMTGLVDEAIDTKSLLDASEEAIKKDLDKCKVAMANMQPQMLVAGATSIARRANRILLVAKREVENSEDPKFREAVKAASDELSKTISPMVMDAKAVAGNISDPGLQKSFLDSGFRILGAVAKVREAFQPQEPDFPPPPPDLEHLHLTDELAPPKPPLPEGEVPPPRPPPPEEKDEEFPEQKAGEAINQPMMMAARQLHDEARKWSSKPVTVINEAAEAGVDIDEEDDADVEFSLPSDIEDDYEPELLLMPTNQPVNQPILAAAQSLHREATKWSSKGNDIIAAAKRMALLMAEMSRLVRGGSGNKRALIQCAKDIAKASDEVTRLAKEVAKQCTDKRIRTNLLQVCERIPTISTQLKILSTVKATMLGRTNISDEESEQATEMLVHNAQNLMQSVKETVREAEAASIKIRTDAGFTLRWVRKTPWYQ

- fold less talin recovered than with T12 vinculin: 390 fold
Substance: talin (endogenous in 4T1 cells; the paper's 'talin' refers collectively to talin 1 and 2) (from UniProt P26039 1-2541) (natural protein)
